Laboratory results: patent publication US20100162415A1

Tests used:
Experiment in all cases: cell-based or functional assay
[1] = biological target: hum-X VEGF (mouse VEGF-A with 10 residues replaced by the human residues)
[2] = biological target: murine VEGF-A (muVEGF164) (mouse) (UniProt Q00731)
[3] = biological target: human VEGF-A (huVEGF165) (human) (UniProt P15692)
UniProt P15692, sequence (P15692 other isoform, or with tags, fused parts or gaps): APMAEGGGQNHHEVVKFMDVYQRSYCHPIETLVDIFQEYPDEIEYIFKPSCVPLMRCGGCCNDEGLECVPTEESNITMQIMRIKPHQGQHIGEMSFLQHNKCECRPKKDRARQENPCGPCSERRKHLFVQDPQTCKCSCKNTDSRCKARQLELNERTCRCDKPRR

UniProt Q00731, sequence (Q00731 other isoform, or with tags, fused parts or gaps): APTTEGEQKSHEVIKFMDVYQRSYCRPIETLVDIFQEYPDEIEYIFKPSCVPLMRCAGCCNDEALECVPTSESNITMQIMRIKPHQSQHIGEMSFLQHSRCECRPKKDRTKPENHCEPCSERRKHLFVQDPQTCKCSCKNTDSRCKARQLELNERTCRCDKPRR

| Substance | IC50, inhibition of VEGF-stimulated bovine retinal capillary endothelial cell proliferation [1] [µg/mL] | IC50, inhibition of VEGF-stimulated bovine retinal capillary endothelial cell proliferation [2] [µg/mL] | IC50, inhibition of VEGF-stimulated bovine retinal capillary endothelial cell proliferation [3] [µg/mL] |
| --- | --- | --- | --- |
| B20-4.1 (antibody) | 0.076 | 0.5 | 0.052 |
| G6-31 (antibody) | 0.0061 |  |  |
| Y0317 (antibody) | 0.0027 |  | 0.00075 |
